Patent publication US20220056104A1 (Janssen / Centocor, published 2022)

T1: DcR3 (UniProt O95407 30-300, limits assumed)
T1 construct: the construct is not described; also called decoy receptor DcR3; TNFRSF6B
T1 sequence (looked up): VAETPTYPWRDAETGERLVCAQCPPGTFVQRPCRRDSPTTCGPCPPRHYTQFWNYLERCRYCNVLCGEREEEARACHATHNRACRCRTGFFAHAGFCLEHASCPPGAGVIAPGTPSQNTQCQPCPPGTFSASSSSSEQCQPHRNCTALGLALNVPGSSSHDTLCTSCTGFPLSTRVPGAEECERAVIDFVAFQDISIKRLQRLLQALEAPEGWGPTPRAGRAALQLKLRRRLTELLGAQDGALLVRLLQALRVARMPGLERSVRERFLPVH

T2: Recombinant DR3-Fc (R&D Systems, cat. #943-D3) (UniProt Q93038 25-199, limits assumed)
T2 construct: dimeric MW~92 kDa; also called DR3 receptor; Fc-DR3; not shown: Fc part of the bought fusion
T2 sequence (looked up): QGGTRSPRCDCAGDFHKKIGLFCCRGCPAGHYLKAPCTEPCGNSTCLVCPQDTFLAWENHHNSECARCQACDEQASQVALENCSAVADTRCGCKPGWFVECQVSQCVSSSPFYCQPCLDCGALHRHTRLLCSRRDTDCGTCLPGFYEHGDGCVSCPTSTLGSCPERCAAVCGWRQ


molecular target: T1, DcR3; test: ELISA, DcR3

| EC50 [nM] | Rel EC50 | Binder |
| --- | --- | --- |
| 30.7 | 6.7 ratio (head: nM) | TL1W24 (His-TEV-hTL1A 72-251 F209A) (ligand, also called TL1W24 (F209A)) HHHHHHENLYFQGLKGQEFAPSHQQVYAPLRADGDKPRAHLTVVRQTPTQHFKNQFPALHWEHELGLAFTKNRMNYTNKFLLIPESGDYFIYSQVTFRGMTSECSEIRQAGRPNKPDSITVVITKVTDSYPEPTQLLMGTKSVCEVGSNWAQPIYLGAMFSLQEGDKLMVNVSDISLVDYTKEDKTFFGAFLL |
| 21.5 | 4.7 ratio (head: nM) | TL1W134 (His-TEV-TL1A T239K) (ligand, also called TL1W134 (T239K)) HHHHHHENLYFQGLKGQEFAPSHQQVYAPLRADGDKPRAHLTVVRQTPTQHFKNQFPALHWEHELGLAFTKNRMNYTNKFLLIPESGDYFIYSQVTFRGMTSECSEIRQAGRPNKPDSITVVITKVTDSYPEPTQLLMGTKSVCEVGSNWFQPIYLGAMFSLQEGDKLMVNVSDISLVDYKKEDKTFFGAFLL |
| 16.9 | 3.7 ratio (head: nM) | TL1W130 (His-TEV-TL1A Y238R) (ligand, also called TL1W130 (Y238R)) HHHHHHENLYFQGLKGQEFAPSHQQVYAPLRADGDKPRAHLTVVRQTPTQHFKNQFPALHWEHELGLAFTKNRMNYTNKFLLIPESGDYFIYSQVTFRGMTSECSEIRQAGRPNKPDSITVVITKVTDSYPEPTQLLMGTKSVCEVGSNWFQPIYLGAMFSLQEGDKLMVNVSDISLVDRTKEDKTFFGAFLL |
| 8 | 1.7 ratio (head: nM) | TL1W89 (His-TEV-TL1A R156Y) (ligand, also called TL1W89 (R156Y)) HHHHHHENLYFQGLKGQEFAPSHQQVYAPLRADGDKPRAHLTVVRQTPTQHFKNQFPALHWEHELGLAFTKNRMNYTNKFLLIPESGDYFIYSQVTFYGMTSECSEIRQAGRPNKPDSITVVITKVTDSYPEPTQLLMGTKSVCEVGSNWFQPIYLGAMFSLQEGDKLMVNVSDISLVDYTKEDKTFFGAFLL |
| 2.9 | 0.6 ratio (head: nM) | TL1W86 (His-TEV-TL1A G124K) (ligand, also called TL1W86 (G124K)) HHHHHHENLYFQGLKGQEFAPSHQQVYAPLRADGDKPRAHLTVVRQTPTQHFKNQFPALHWEHELKLAFTKNRMNYTNKFLLIPESGDYFIYSQVTFRGMTSECSEIRQAGRPNKPDSITVVITKVTDSYPEPTQLLMGTKSVCEVGSNWFQPIYLGAMFSLQEGDKLMVNVSDISLVDYTKEDKTFFGAFLL |
| 2.2 | 0.5 ratio (head: nM) | TL1W83 (His-TEV-TL1A E120K) (ligand, also called TL1W83 (E120K)) HHHHHHENLYFQGLKGQEFAPSHQQVYAPLRADGDKPRAHLTVVRQTPTQHFKNQFPALHWKHELGLAFTKNRMNYTNKFLLIPESGDYFIYSQVTFRGMTSECSEIRQAGRPNKPDSITVVITKVTDSYPEPTQLLMGTKSVCEVGSNWFQPIYLGAMFSLQEGDKLMVNVSDISLVDYTKEDKTFFGAFLL |
| 8.3 | 1.8 ratio (head: nM) | TL1W91 (His-TEV-TL1A R156E) (ligand, also called TL1W91 (R156E)) HHHHHHENLYFQGLKGQEFAPSHQQVYAPLRADGDKPRAHLTVVRQTPTQHFKNQFPALHWEHELGLAFTKNRMNYTNKFLLIPESGDYFIYSQVTFEGMTSECSEIRQAGRPNKPDSITVVITKVTDSYPEPTQLLMGTKSVCEVGSNWFQPIYLGAMFSLQEGDKLMVNVSDISLVDYTKEDKTFFGAFLL |
| 34.3 | 7.5 ratio (head: nM) | TL1W27 (His-TEV-hTL1A 72-251 T239E) (ligand, also called TL1W27 (T239E)) HHHHHHENLYFQGLKGQEFAPSHQQVYAPLRADGDKPRAHLTVVRQTPTQHFKNQFPALHWEHELGLAFTKNRMNYTNKFLLIPESGDYFIYSQVTFRGMTSECSEIRQAGRPNKPDSITVVITKVTDSYPEPTQLLMGTKSVCEVGSNWFQPIYLGAMFSLQEGDKLMVNVSDISLVDYEKEDKTFFGAFLL |
| 8.5 | 1.9 ratio (head: nM) | TL1W135 (His-TEV-TL1A K240A) (ligand, also called TL1W135 (K240A)) HHHHHHENLYFQGLKGQEFAPSHQQVYAPLRADGDKPRAHLTVVRQTPTQHFKNQFPALHWEHELGLAFTKNRMNYTNKFLLIPESGDYFIYSQVTFRGMTSECSEIRQAGRPNKPDSITVVITKVTDSYPEPTQLLMGTKSVCEVGSNWFQPIYLGAMFSLQEGDKLMVNVSDISLVDYTAEDKTFFGAFLL |
| 10.8 | 2.3 ratio (head: nM) | TL1W133 (His-TEV-TL1A T239F) (ligand, also called TL1W133 (T239F)) HHHHHHENLYFQGLKGQEFAPSHQQVYAPLRADGDKPRAHLTVVRQTPTQHFKNQFPALHWEHELGLAFTKNRMNYTNKFLLIPESGDYFIYSQVTFRGMTSECSEIRQAGRPNKPDSITVVITKVTDSYPEPTQLLMGTKSVCEVGSNWFQPIYLGAMFSLQEGDKLMVNVSDISLVDYFKEDKTFFGAFLL |
| 5.7 | 1.2 ratio (head: nM) | TL1W33 (E241L) (ligand, no entry of the listing holds E241L; also called E241L variant of His-TL1A) HHHHHHENLYFQGLKGQEFAPSHQQVYAPLRADGDKPRAHLTVVRQTPTQHFKNQFPALHWEHELGLAFTKNRMNYTNKFLLIPESGDYFIYSQVTFRGMTSECSEIRQAGRPNKPDSITVVITKVTDSYPEPTQLLMGTKSVCEVGSNWFQPIYLGAMFSLQEGDKLMVNVSDISLVDYTKLDKTFFGAFLL |
| 13.5 | 2.9 ratio (head: nM) | TL1W88 (His-TEV-TL1A R156A) (ligand, also called TL1W88 (R156A)) HHHHHHENLYFQGLKGQEFAPSHQQVYAPLRADGDKPRAHLTVVRQTPTQHFKNQFPALHWEHELGLAFTKNRMNYTNKFLLIPESGDYFIYSQVTFAGMTSECSEIRQAGRPNKPDSITVVITKVTDSYPEPTQLLMGTKSVCEVGSNWFQPIYLGAMFSLQEGDKLMVNVSDISLVDYTKEDKTFFGAFLL |
| 59.5 | 12.9 ratio (head: nM) | TL1W138 (His-TEV-TL1A K240D) (ligand, also called TL1W138 (K240D)) HHHHHHENLYFQGLKGQEFAPSHQQVYAPLRADGDKPRAHLTVVRQTPTQHFKNQFPALHWEHELGLAFTKNRMNYTNKFLLIPESGDYFIYSQVTFRGMTSECSEIRQAGRPNKPDSITVVITKVTDSYPEPTQLLMGTKSVCEVGSNWFQPIYLGAMFSLQEGDKLMVNVSDISLVDYTDEDKTFFGAFLL |
| 17.3 | 3.8 ratio (head: nM) | TL1W139 (His-TEV-TL1A E241Q) (ligand, also called TL1W139 (E241Q)) HHHHHHENLYFQGLKGQEFAPSHQQVYAPLRADGDKPRAHLTVVRQTPTQHFKNQFPALHWEHELGLAFTKNRMNYTNKFLLIPESGDYFIYSQVTFRGMTSECSEIRQAGRPNKPDSITVVITKVTDSYPEPTQLLMGTKSVCEVGSNWFQPIYLGAMFSLQEGDKLMVNVSDISLVDYTKQDKTFFGAFLL |
| 20.4 | 4.4 ratio (head: nM) | TL1W101 (His-TEV-TL1A S176N) (ligand, also called TL1W101 (S176N)) HHHHHHENLYFQGLKGQEFAPSHQQVYAPLRADGDKPRAHLTVVRQTPTQHFKNQFPALHWEHELGLAFTKNRMNYTNKFLLIPESGDYFIYSQVTFRGMTSECSEIRQAGRPNKPDNITVVITKVTDSYPEPTQLLMGTKSVCEVGSNWFQPIYLGAMFSLQEGDKLMVNVSDISLVDYTKEDKTFFGAFLL |
| 10.5 | 2.3 ratio (head: nM) | TL1W128 (His-TEV-TL1A Y238S) (ligand, also called TL1W128 (Y238S)) HHHHHHENLYFQGLKGQEFAPSHQQVYAPLRADGDKPRAHLTVVRQTPTQHFKNQFPALHWEHELGLAFTKNRMNYTNKFLLIPESGDYFIYSQVTFRGMTSECSEIRQAGRPNKPDSITVVITKVTDSYPEPTQLLMGTKSVCEVGSNWFQPIYLGAMFSLQEGDKLMVNVSDISLVDSTKEDKTFFGAFLL |

molecular target: T2, Recombinant DR3-Fc (R&D Systems, cat. …); test: ELISA, DR3-Fc immobilized
Method: All ELISA-based measurements were collected in triplicate, and error values report the standard error between measurements. Recombinant DR3-Fc (R&D Systems, cat. #943-D3), dimeric MW˜92 kDa, was non-specifically immobilized onto plates (Nunc maxisorp, cat. #436110) in 100 μL DR3-Fc, diluted to 10 μg/mL onto a 96-well White Maxisorp plate (Nunc, cat #436110) (O/N, 4° C.). Plates were block for 1 hour at room temperature with 250 μl/well of casein buffer and blocking buffer was removed. 50 μL of TL1A variants were diluted in StartingBlock PBS (Thermo Fisher Scientific), at 25 μg/mL, diluting 3× over each well, according to the plate map description for 20160623) per well on a 96-well White Maxisorp plate (Nunc, cat #: 436110) (overnight at 4° C.).
Plates were washed three times with TBST. 100 μl/well polyclonal rabbit anti-human TL1A-biotin antibody (diluted 1:1000 in Starting Block PBS) was added and plates were incubated for 1 hour at room temperature with shaking at 150 rpm. TL1A-biotin antibody was removed and 100 μl/well streptavidin-HRP conjugate (diluted 1:10,000 in Starting Block PBS) was added to plates. Plates were incubated for 1 hour at room temperature with shaking at 150 rpm. Plates were washed three times with TBST. 100 μl/well POD Chemiluminescence substrate (Roche, cat #: 11582950001) was added immediately prior to reading plate luminescence using a Molecular Devices M5 plate reader with a delay setting of 100 ms.
Variants of TL1A were generated and tested for binding to DR3 and DcR3 by ELISA as described.

| EC50 [nM] | Rel EC50 | Binder |
| --- | --- | --- |
| 281 | 10.7 ratio (head: nM) | TL1W24 (His-TEV-hTL1A 72-251 F209A) (ligand, also called TL1W24 (F209A)) HHHHHHENLYFQGLKGQEFAPSHQQVYAPLRADGDKPRAHLTVVRQTPTQHFKNQFPALHWEHELGLAFTKNRMNYTNKFLLIPESGDYFIYSQVTFRGMTSECSEIRQAGRPNKPDSITVVITKVTDSYPEPTQLLMGTKSVCEVGSNWAQPIYLGAMFSLQEGDKLMVNVSDISLVDYTKEDKTFFGAFLL |
| 14.8 | 0.6 ratio (head: nM) | TL1W87 (His-TEV-TL1A G124D) (ligand, also called TL1W87 (G124D)) HHHHHHENLYFQGLKGQEFAPSHQQVYAPLRADGDKPRAHLTVVRQTPTQHFKNQFPALHWEHELDLAFTKNRMNYTNKFLLIPESGDYFIYSQVTFRGMTSECSEIRQAGRPNKPDSITVVITKVTDSYPEPTQLLMGTKSVCEVGSNWFQPIYLGAMFSLQEGDKLMVNVSDISLVDYTKEDKTFFGAFLL |
| 39.1 | 1.5 ratio (head: nM) | TL1W108 (His-TEV-TL1A S187A) (ligand, also called TL1W108 (S187A)) HHHHHHENLYFQGLKGQEFAPSHQQVYAPLRADGDKPRAHLTVVRQTPTQHFKNQFPALHWEHELGLAFTKNRMNYTNKFLLIPESGDYFIYSQVTFRGMTSECSEIRQAGRPNKPDSITVVITKVTDAYPEPTQLLMGTKSVCEVGSNWFQPIYLGAMFSLQEGDKLMVNVSDISLVDYTKEDKTFFGAFLL |
| 284 | 10.8 ratio (head: nM) | TL1W46 (His-TEV-TL1A T239W) (ligand, also called TL1W46 (T239W)) HHHHHHENLYFQGLKGQEFAPSHQQVYAPLRADGDKPRAHLTVVRQTPTQHFKNQFPALHWEHELGLAFTKNRMNYTNKFLLIPESGDYFIYSQVTFRGMTSECSEIRQAGRPNKPDSITVVITKVTDSYPEPTQLLMGTKSVCEVGSNWFQPIYLGAMFSLQEGDKLMVNVSDISLVDYWKEDKTFFGAFLL |
